Laboratory results reported in article PMC5385945 (Molecular Biology of the Cell, 2017).

Molecular target: T1, Qc-SNARE Vam7 (wild type, naturally soluble) (S. cerevisiae, UniProt P32912 1-316)
T1 sequence (looked up): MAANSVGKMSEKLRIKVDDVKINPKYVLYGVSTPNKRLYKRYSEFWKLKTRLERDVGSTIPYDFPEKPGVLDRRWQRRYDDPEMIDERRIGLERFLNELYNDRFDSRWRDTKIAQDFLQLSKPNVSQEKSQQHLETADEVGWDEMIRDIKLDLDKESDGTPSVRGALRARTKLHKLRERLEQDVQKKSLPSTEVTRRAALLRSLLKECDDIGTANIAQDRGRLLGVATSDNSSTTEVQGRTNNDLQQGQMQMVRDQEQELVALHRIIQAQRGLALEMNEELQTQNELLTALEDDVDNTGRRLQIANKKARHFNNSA
Assay: co-flotation with proteoliposomes

binding result: binds
B1: Rab GTPase Ypt7, GTP-loaded, bound to proteoliposomes (natural protein, S. cerevisiae, UniProt P32939 1-208, looked up)
chain: MSSRKKNILKVIILGDSGVGKTSLMHRYVNDKYSQQYKATIGADFLTKEVTVDGDKVATMQVWDTAGQERFQSLGVAFYRGADCCVLVYDVTNASSFENIKSWRDEFLVHANVNSPETFPFVILGNKIDAEESKKIVSEKSAQELAKSLGDIPLFLTSAKNAINVDTAFEEIARSALQQNQADTEAFEDDYNDAINIRLDGENNSCSC
